Experimental data reported in patent US20170112792A1, “ENHANCED ATRA-RELATED COMPOUNDS DERIVED FROM STRUCTURE-ACTIVITY RELATIONSHIPS AND MODELING FOR INHIBITING PIN1” (Beth Israel Deaconess Medical Center, Inc., priority 2014, published 2017).

Target: pSer110 peptide (IRAKM residues 103-124 with Ser110 phosphorylated)
Assay: NMR titration, 1H-15N HSQC chemical shift changes

Sequence of pSer110 peptide (IRAKM residues 103-124 with Ser110 phosphorylated) (peptide, as listed by the source limits assumed): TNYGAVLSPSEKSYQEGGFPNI

Kd: 60.7 µM
Substance: 15N-labeled Pin1 WW domain (Pin1 residues 1-50) (from UniProt Q13526 1-50)
